Data as given in paper PMC3893830, “Manipulating Conserved Heme Cavity Residues of Chlorite Dismutase: Effect on Structure, Redox Chemistry, and Reactivity” (Biochemistry, 2013).

Substrate: [O-][Cl+]O
Test: O2 release, Clark-type oxygen electrode
Assay type: biochemical, Nitrospira defluvii
Settings: 50 mM phosphate pH 7.0, 30 °C, O2-free buffer, low heme occupancy
Text: O2 release, Clark-type oxygen electrode on NdCld

B1: NdCld (Nitrospira defluvii; E236A/R199Q) (protein)
chain: ADREKLLTESGVYGTFATFQMDHDWWDLPGESRVISVAEVKGLVEQWSGKILVESYLLRGLSDHADLMFRVHARTLSDTQQFLSAFMGTRLGRHLTSGGLLHGVSKKPTYVAGFPESMKTELQVNGESGSRPYAIVIPIKKDAEWWALDQEARTALMQEHTQAALPYLKTVKQKLYHSTGLDDVDFITYFETERLEDFHNLVRALQQVKAFRHNRRFGHPTLLGTMSPLDEILEKFAQ
notes: N-terminal TEV-cleavable Strep-II tag, N-terminal signal peptide removed; expressed in E. coli Tuner (DE3), StrepTrap purified; homopentamer with heme b
Work on B1 yielded a Km of 184 ± 36 µM, a kcat of 0.9 s⁻¹ and a kcat/Km of 4600 M⁻¹ s⁻¹.
